Test results from the supplement of paper PMC10201428.
± gives the standard deviation of the averaged measurements.

Legend:
[1] = system: VchCAST RNA-guided transposition machinery (E. coli BL21(DE3) host, lacZ target); test: relative integration efficiency (T-RL orientation) vs wild-type transposon end (log2 (normalized fold change)); transposon end mutated: right end (5 bp flank + 75 bp right end); higher = more efficient transposition
How it was run: (§1)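 Relative integration efficiency is a fold change of output over input barcode abundance, normalised to reference barcodes and log-transformed. Input plasmids and genomic integration junctions were PCR-amplified and Illumina-sequenced from E. coli BL21(DE3) co-transformed with a T7-driven effector plasmid and pUC57 donor pools of 1549 left-end or 1849 right-end transposon variants. Plating was done with 0.1 mM IPTG at 37°C for 18 h, with two biological output replicates and four reference barcodes.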

[2] = system: VchCAST RNA-guided transposition machinery (E. coli BL21(DE3) host, lacZ target); test: relative integration efficiency (T-LR orientation) vs wild-type transposon end (log2 (normalized fold change)); transposon end mutated: right end (5 bp flank + 75 bp right end); higher = more efficient transposition
How it was run: as §1

Sequence | relative integration efficiency (log2) [1] | relative integration efficiency (log2) [2]
ACATTTGTTGATACAACCATAAAATGATAATAACACCCATAAAATGATAATTATCACACCCAATTTAACTATAACGCTCTGATCATAGTCAGACCAACATTGCTACGACCCGTATTCGCACCGACAC | -0.0962 ± 0.22 | 3.211 ± 0.011
ACATTTGTTGATACAACCATAAAATGATAATAACACCCATAAATTGATAATAATCACACCCATAAATTGATATTCCCTCTGATCATAGTCAGACCAACATTGCTACGACCCGTATTCGCACCGACAC | -0.389 ± 0.15 | -0.098 ± 0.26
ACATTTGTTGATACAACCATAAAATGATAATATCACCCATAAATTGATAATATTCACACCCATAAATTGATATTCGCTCTGATCATAGTCAGACCAACATTGCTACGACCCGTATTCGCACCGACAC | -0.471 ± 0.0068 | -0.639 ± 0.0008
ACATTTGTTGATACAACCATAAAATGATAATATCACCCATAAATTGATAATTATCACACCCATAAATTGATATTGCCTCTGATCATAGTCAGACCAACATTGCTACGACCCGTATTCGCACCGACAC | -0.188 ± 0.066 | -0.505 ± 0.091
ACATTTGTTGATACAACCATAAAATGATAATATGTCCCATAAATTGATAATTATCACACCCATAAATTGATATTGCCTCTGATCATAGTCAGACCAACATTGCTACGACCCGTATTCGCACCGACAC | -1.29 ± 0.17 | -0.96 ± 0.27
ACATTTGTTGATACAACCATAAAATGATAATCACCCATAAATTGATAATTATCACACCCATAAATTGATATTGCCTCTGATCATAGTCAGACCAACATTGCTACGACCCGTATTCGCACCGACACTG | -4.33 ± 0.1 | -1.91 ± 0.79
ACATTTGTTGATACAACCATAAAATGATAATGACACCCATAAATTGATAATGATCACACCCATAAATTGATATTTCCTCTGATCATAGTCAGACCAACATTGCTACGACCCGTATTCGCACCGACAC | -0.238 ± 0.065 | 0.195 ± 0.093
ACATTTGTTGATACAACCATAAAATGATAATGCACAAACGCCCGGTCGCCGGCGACACAAACGCCCGGTCGCGGTAAGAGGATCATAGTCAGACCAACATTGCTACGACCCGTATTCGCACCGACAC | -2.15 ± 0.043 | 1.04 ± 0.18
ACATTTGTTGATACAACCATAAAATGATAATGCACCCCATAAATTGATAATTATCACACCCATAAATTGATATTGCCTCTGATCATAGTCAGACCAACATTGCTACGACCCGTATTCGCACCGACAC | -1.24 ± 0.24 | -0.689 ± 0.18
ACATTTGTTGATACAACCATAAAATGATAATGCCACCCATAAATTGATAATGCTCACACCCATAAATTGATATTTACTCTGATCATAGTCAGACCAACATTGCTACGACCCGTATTCGCACCGACAC | -0.867 ± 0.17 | -0.0326 ± 0.2
ACATTTGTTGATACAACCATAAAATGATAATGCCACCCATAAATTGATAATTATCACACCCATAAATTGATATTGCCTCTGATCATAGTCAGACCAACATTGCTACGACCCGTATTCGCACCGACAC | -0.625 ± 0.1 | -0.173 ± 0.33
ACATTTGTTGATACAACCATAAAATGATAATTAACAAACGCCCGGTCGCCGGCGACACAAACGCCCGGTCGCGGTAAGAGGATCATAGTCAGACCAACATTGCTACGACCCGTATTCGCACCGACAC | -2.3 ± 0.29 | 0.957 ± 0.25
ACATTTGTTGATACAACCATAAAATGATAATTAACAAACGCCCGGTCGCCGGCTCAACAAACGCCCGGTCGCGGTACTCTGATCATAGTCAGACCAACATTGCTACGACCCGTATTCGCACCGACAC | -1.98 ± 0.26 | 1.12 ± 0.068
ACATTTGTTGATACAACCATAAAATGATAATTAACAAACGCCCGGTCGCCGGCTCACACCCATAAATTGATATTGCCTCTGATCATAGTCAGACCAACATTGCTACGACCCGTATTCGCACCGACAC | -3.28 ± 0.31 | -0.997 ± 0.22
ACATTTGTTGATACAACCATAAAATGATAATTAACAACATAAATTGATAATTATCACACCCATAAATTGATATTGCCTCTGATCATAGTCAGACCAACATTGCTACGACCCGTATTCGCACCGACAC | -0.394 ± 0.018 | -0.921 ± 0.31
ACATTTGTTGATACAACCATAAAATGATAATTAACACCCATAAATTGATAATTATCAACAAACGCCCGGTCGCGGTACTCTGATCATAGTCAGACCAACATTGCTACGACCCGTATTCGCACCGACA | -0.721 ± 0.29 | 1.67 ± 0.2
ACATTTGTTGATACAACCATAAAATGATAATTAACACCCATAAATTGATAATTATCACACCCATAAATTGATATTGCCTCTGATCATAGTCAGACCAACATTGCTACGACCCGTATTCGCACCGACA | -0.572 ± 0.11 | -0.437 ± 0.21
ACATTTGTTGATACAACCATAAAATGATAATTAACCCCATAAATTGATAATTATCACACCCATAAATTGATATTGCCTCTGATCATAGTCAGACCAACATTGCTACGACCCGTATTCGCACCGACAC | -0.822 ± 0.075 | -0.881 ± 0.17
ACATTTGTTGATACAACCATAAAATGATAATTAATAACACCCATAAATTGATAATTATCAACAAACGCCCGGTCGCGGTACTCTGATCATAGTCAGACCAACATTGCTACGACCCGTATTCGCACCG | -2.52 ± 0.17 | 0.892 ± 0.16
ACATTTGTTGATACAACCATAAAATGATAATTAATAACACCCATAAATTGATAATTATCACACCCATAAATTGATATTGCCTCTGATCATAGTCAGACCAACATTGCTACGACCCGTATTCGCACCG | -3.16 ± 0.3 | 0.728 ± 0.12
ACATTTGTTGATACAACCATAAAATGATAATTAATAATCACCCATAAATTGATAATTATCAACAAACGCCCGGTCGCGGTACTCTGATCATAGTCAGACCAACATTGCTACGACCCGTATTCGCACC | -2.77 ± 0.31 | 0.619 ± 0.018
ACATTTGTTGATACAACCATAAAATGATAATTAATAATCACCCATAAATTGATAATTATCACACCCATAAATTGATATTGCCTCTGATCATAGTCAGACCAACATTGCTACGACCCGTATTCGCACC | -2.77 ± 0.17 | 0.894 ± 0.13
ACATTTGTTGATACAACCATAAAATGATAATTAATAATTACACCCATAAATTGATAATTATCAACAAACGCCCGGTCGCGGTACTCTGATCATAGTCAGACCAACATTGCTACGACCCGTATTCGCA | -2.18 ± 0.28 | 1.37 ± 0.24
ACATTTGTTGATACAACCATAAAATGATAATTAATAATTACACCCATAAATTGATAATTATCACACCCATAAATTGATATTGCCTCTGATCATAGTCAGACCAACATTGCTACGACCCGTATTCGCA | -3.12 ± 0.2 | 0.0363 ± 0.21
ACATTTGTTGATACAACCATAAAATGATAATTAATAATTATCACCCATAAATTGATAATTATCAACAAACGCCCGGTCGCGGTACTCTGATCATAGTCAGACCAACATTGCTACGACCCGTATTCGC | -3.56 ± 0.2 | -0.012 ± 0.0046
ACATTTGTTGATACAACCATAAAATGATAATTAATAATTATCACCCATAAATTGATAATTATCACACCCATAAATTGATATTGCCTCTGATCATAGTCAGACCAACATTGCTACGACCCGTATTCGC | -3.32 ± 0.2 | -0.503 ± 0.38
ACATTTGTTGATACAACCATAAAATGATAATTAATAATTATTCACCCATAAATTGATAATTATCAACAAACGCCCGGTCGCGGTACTCTGATCATAGTCAGACCAACATTGCTACGACCCGTATTCG | -2.63 ± 0.4 | 0.337 ± 0.11
